In US20130022590, “Compositions Comprising Zinc Finger Domains and Uses Therefor” (published 2013):
Where a chain is given by its changes, count along the chain named.

Columns and labels:
ZRANB2-F12 delta45-64 [1] = biological target: T1, ZRANB2-F12 delta45-64 (Homo sapiens, UniProt O95218 O95218:1-44+65-95, del45-64); assay: FP; conditions: label: 5'-fluorescein
ZRANB2-F12 [2] = biological target: T2, ZRANB2-F12 (Homo sapiens, UniProt O95218 O95218:1-95); assay: FP; affinity increases with spacing; value in figure only; conditions: tags: GST removed for FA, gel shift and SPR; label: 5'-fluorescein
Protocol: (§1) Fluorescence Anisotropy titrations e.g., as shown in FIGS. 1D-F, 8 and 35, were carried out using standard protocols. In brief, 5′-Fluorescein-labeled RNA oligonucleotides were quantified by A₂₆₀, correcting for fluorescein absorbance by using A₄₉₃. For single-site experiments, the sequence […] (SEQ ID NO: 28), or single base mutants thereof, was used. For double-site experiments, two AGGUAA sites were separated by different length sequences as indicated, and the total oligonucleotide lengths were kept constant by the symmetrical addition of adenines to each end. […] Protein was titrated into this starting solution and anisotropy values measured on a Cary Eclipse fluorescence spectrophotometer fitted with manual polarizer and long-pass filters set to 475 and 515 nm for excitation and emission, respectively. […] Association constants were determined by nonlinear least squares regression analysis using a 1:1 binding model.
The importance of the spacing between AGGUAA motifs was assessed by measuring binding of F12 to double sites that were separated by −1 to 8 nt (where −1 denotes the sequence […] SEQ ID NO: 33; FIG. 1E, lanes 5-10).

ZRANB2-F12 delta47-61 = ZRANB2-F12 delta47-61 (Homo sapiens, UniProt O95218 O95218:1-46+62-95, del47-61); assay: FP; about 30-51e6 stated; order comparable to wild-type F12; conditions: label: 5'-fluorescein
Protocol: as §1
(§2) The inventors have employed deletion mutagenesis to thereby identify a minimal inter-finger linker region of ZRANB2 required for specific ssRNA-binding. […] The deletion constructs were then tested for an ability to bind the ssRNA substrate 5′-GGUNXGGU-3′ comprising a repeat of the GGU core sequence using fluorescence anisotropy titration.

ZRANB2-F12 delta45-64 [3] = biological target: T1, ZRANB2-F12 delta45-64; assay: FP; lower affinity than F122; conditions: label: 5'-fluorescein
Protocol: Fluorescence Anisotropy titrations e.g., as shown in FIGS. 1D-F, 8 and 35, were carried out using standard protocols. In brief, 5′-Fluorescein-labeled RNA oligonucleotides were quantified by A₂₆₀, correcting for fluorescein absorbance by using A₄₉₃. For single-site experiments, the sequence […] (SEQ ID NO: 28), or single base mutants thereof, was used. For double-site experiments, two AGGUAA sites were separated by different length sequences as indicated, and the total oligonucleotide lengths were kept constant by the symmetrical addition of adenines to each end. The anisotropy titrations were performed with a starting RNA concentration of 50 nM in a buffer comprising either 10 mM Tris (pH 8.0), 50 mM KCl, 5 mM MgCl₂, 0.05 mg/mL heparin, and 1 mM DTT (for GST fusion constructs) or 10 mM Mops (pH 7.3), 50 mM NaCl, 0.05 mg/mL heparin, and 1 mM DTT (for ZRANB2-F12). RNasin (Promega) was also added to the protein solution to a concentration of 2 units/μL. Protein was titrated into this starting solution and anisotropy values measured on a Cary Eclipse fluorescence spectrophotometer fitted with manual polarizer and long-pass filters set to 475 and 515 nm for excitation and emission, respectively. […] Association constants were determined by nonlinear least squares regression analysis using a 1:1 binding model. […]

ZRANB2-F12 [4] = biological target: T2, ZRANB2-F12; assay: FP; range stated for deletion construct and comparable wild type; conditions: tags: GST removed for FA, gel shift and SPR; label: 5'-fluorescein
Protocol: as §1, §2

[5] = biological target: EWS RanBP2-type zinc finger (Homo sapiens, UniProt Q01844 Q01844:518-549); assay: FP; value in figure only; conditions: tags: expressed as GST fusion
EWS RanBP2-type zinc finger, sequence (Q01844 518-549, one chain of several): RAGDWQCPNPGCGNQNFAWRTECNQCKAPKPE
Protocol: Fluorescence Anisotropy titrations e.g., as shown in FIGS. 1D-F, 8 and 35, were carried out using standard protocols. In brief, 5′-Fluorescein-labeled RNA oligonucleotides were quantified by A₂₆₀, correcting for fluorescein absorbance by using A₄₉₃. For single-site experiments, the sequence […] (SEQ ID NO: 28), or single base mutants thereof, was used. For double-site experiments, two AGGUAA sites were separated by different length sequences as indicated, and the total oligonucleotide lengths were kept constant by the symmetrical addition of adenines to each end. The anisotropy titrations were performed with a starting RNA concentration of 50 nM in a buffer comprising either 10 mM Tris (pH 8.0), 50 mM KCl, 5 mM MgCl₂, 0.05 mg/mL heparin, and 1 mM DTT (for GST fusion constructs) or 10 mM Mops (pH 7.3), 50 mM NaCl, 0.05 mg/mL heparin, and 1 mM DTT (for ZRANB2-F12). RNasin (Promega) was also added to the protein solution to a concentration of 2 units/μL. Protein was titrated into this starting solution and anisotropy values measured on a Cary Eclipse fluorescence spectrophotometer fitted with manual polarizer and long-pass filters set to 475 and 515 nm for excitation and emission, respectively. […] Association constants were determined by nonlinear least squares regression analysis using a 1:1 binding model.

ZRANB2-F2 (untagged) = biological target: T3, ZRANB2-F2 (untagged) (Homo sapiens, UniProt O95218 O95218:65-95); assay: structure; crystal structure 1.4 A; W79 stacks between G2 and G3
T3 chain: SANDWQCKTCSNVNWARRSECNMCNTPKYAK

EKLF-F123 = EKLF-F123 (UniProt P46099 P46099:275-357); assay: FP; higher affinity than poly(C) or AGGUAA; also HSQC titration; conditions: tags: zinc fingers 1-3
EKLF-F123, sequence (P46099 275-357, one chain of several): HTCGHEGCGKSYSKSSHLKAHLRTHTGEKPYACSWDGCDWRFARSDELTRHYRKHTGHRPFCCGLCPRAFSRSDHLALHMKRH

ZRANB2-F2 R82N = biological target: T4, ZRANB2-F2 R82N (Homo sapiens, UniProt O95218 O95218:65-95, R82N); assay: FP; also about 2-fold increase versus WT F2; conditions: label: 5'-fluorescein
T4 chain: T3 chain with R18N
Protocol: The anisotropy titrations were performed with a starting RNA concentration of 50 nM in a buffer comprising either 10 mM Tris (pH 8.0), 50 mM KCl, 5 mM MgCl₂, 0.05 mg/mL heparin, and 1 mM DTT (for GST fusion constructs) or 10 mM Mops (pH 7.3), 50 mM NaCl, 0.05 mg/mL heparin, and 1 mM DTT (for ZRANB2-F12). RNasin (Promega) was also added to the protein solution to a concentration of 2 units/μL. Protein was titrated into this starting solution and anisotropy values measured on a Cary Eclipse fluorescence spectrophotometer fitted with manual polarizer and long-pass filters set to 475 and 515 nm for excitation and emission, respectively. Excitation and emission wavelengths were set at 495 and 520 nm, respectively (10-nm slits) and the temperature was maintained at 25° C. by using a block temperature controller. Association constants were determined by nonlinear least squares regression analysis using a 1:1 binding model. […]

## AAGGUGGUGGUAA (ssRNA) [GGUGGUGGU 13-mer]
ZRANB2-F12 delta45-64 [1]
  Ka: ~2.5e+07 M⁻¹

## AGGUAAGGUAA (ssRNA) [double site spacing -1]
ZRANB2-F12 [2]
  binding result: binds

## AAAGGUGGUAAAA (ssRNA) [GGUGGU 13-mer]
ZRANB2-F12 delta47-61
  binding result: binds
ZRANB2-F12 delta45-64 [3]
  binding result: binds
ZRANB2-F12 [4]
  binding result: binds

## AGGUAA (ssRNA) [AGGUAA hexamer]
[5]
  binding result: binds
ZRANB2-F2 (untagged)
  binding result: binds

## UUUUUUUUU (ssRNA) [U9]
EKLF-F123
  binding result: binds

## AGUUAA (ssRNA) [AGUUAA (3U)]
ZRANB2-F2 R82N
  binding signal: ~2 fold higher than AGGUAA
